Experimental findings from patent US20120192297A1 (TOKYO INSTITUTE OF TECHNOLOGY, published 2012) are described below.

The experiment has as its target Cullin 4A (Cul4A), endogenous in 293T cells (human, UniProt Q13619 1-759, limits assumed). Put plainly: anti-FLAG immunoprecipitation from 293T cells, western blotting for DDB1 and Cul4A. In general terms: Immunoblotting shows a protein as a band on a membrane.

Chain of Cullin 4A (Cul4A), endogenous in 293T cells (Q13619 whole entry): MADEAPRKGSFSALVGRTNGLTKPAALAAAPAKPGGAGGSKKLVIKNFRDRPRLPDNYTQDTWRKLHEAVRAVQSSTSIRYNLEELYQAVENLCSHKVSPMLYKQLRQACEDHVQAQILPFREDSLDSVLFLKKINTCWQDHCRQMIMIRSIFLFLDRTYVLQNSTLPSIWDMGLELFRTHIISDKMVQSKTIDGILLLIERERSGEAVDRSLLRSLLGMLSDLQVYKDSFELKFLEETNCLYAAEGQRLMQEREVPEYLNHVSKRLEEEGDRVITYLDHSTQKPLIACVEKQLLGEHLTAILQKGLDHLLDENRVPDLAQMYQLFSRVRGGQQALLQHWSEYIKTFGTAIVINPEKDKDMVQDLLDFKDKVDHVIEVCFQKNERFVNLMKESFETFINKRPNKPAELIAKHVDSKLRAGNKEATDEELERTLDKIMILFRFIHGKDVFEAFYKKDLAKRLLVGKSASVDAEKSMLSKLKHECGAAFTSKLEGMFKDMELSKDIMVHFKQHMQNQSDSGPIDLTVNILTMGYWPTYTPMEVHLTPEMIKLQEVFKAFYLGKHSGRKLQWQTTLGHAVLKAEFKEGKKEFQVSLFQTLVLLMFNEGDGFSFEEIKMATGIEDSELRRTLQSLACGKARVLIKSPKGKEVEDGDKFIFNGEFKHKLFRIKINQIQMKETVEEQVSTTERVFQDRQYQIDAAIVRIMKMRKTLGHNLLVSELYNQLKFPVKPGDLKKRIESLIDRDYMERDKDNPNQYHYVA

B1: FH-CRBN ΔMid (deletion of amino acids 187 to 260) (other, not shown: small tags and cut ends)
chain: MAGEGDQQDAAHNMGNHLPLLPAESEEEDEMEVEDQDSKEAKKPNIINFDTSLPTSHTYLGADMEEFHGRTLHDDDSCQVIPVLPQVMMILIPGQTLPLQLFHPQEVSMVRNLIQKDRTFAVLAYSNVQEREAQFGTTAEIYAYREEQDFGIEIVKVKAIGRQRFKVLELRTQSDGIQQAKVQILPLREWDENLKDDSLPSNPIDFSYRVAACLPIDDVLRIQLLKIGSAIQRLRCELDIMNKCTSLCCKQCQETEITTKNEIFSLSLCGPMAAYVNPHGYVHETLTVYKACNLNLIGRPSTEHSWFPGYAWTVAQCKICASHIGWKFTATKKDMSPQKFWGLTRSALLPTIPDTEDEISPDKVILCL
Consider B1, for which the binding result was “no binding”.
